Results: patent US20160178646A1, “METHODS FOR DETECTING AMYLOID BETA AMYLOIDOSIS” (Washington University, priority 2011, published 2016)

Assay: Aβ SILK tracer kinetics in CSF with compartmental model of Aβ turnover
Format: in vivo, human
Settings: for FTR faster: cognitively normal, amyloid positive group compared to cognitively normal, amyloid negative group; for FTR, Mean(95% confidence limits) / kex42 (Aβ42 exchange rate), Mean(95% confidence limits): multivariate ANOVA; for FTR (fractional turnover rate): mean ± StDev
Source text: These human studies took place at the Washington University School of Medicine in St. Louis and were approved by the Washington University Human Studies Committee and the General Clinical Research Center (GCRC) Advisory Committee. All participants completed informed written consent. One hundred and one participants were enrolled for these studies comprising 57 men (aged from 60.4 to 87.7) and 44 women (aged 63.8 to 85.2). Deposition of amyloid plaques was quantified in 62 subjects based on the mean cortical binding potential (MCBP) score of [^11C]PIB-PET.^15 PET PIB scans were performed within 3 years before or after the SILK tracer study date. Cognitive status using the Clinical Dementia Rating sum of boxes score (CDR-SB16) and ApoE genotyping^33 was assessed in all subjects.
The procedure for stable isotope amino acid tracer administration and sample collection was previously described.^12 Briefly, intravenous and intrathecal lumbar catheters were placed between 7:00 AM and 9:00 AM, and the collection of samples was started between 8:00 AM and 10:00 AM. After initial CSF and plasma baseline samples were collected, each participant was infused with a bolus of 3 mg/kg L-[U-^13C6] leucine for 10 minutes, followed by a constant infusion (2 mg/kg/h) for the remainder of the first 9 hours. Blood samples (12 mL) were obtained hourly for the first 16 h and every other hour thereafter. CSF samples (6 mL) were obtained hourly throughout each study. Aliquots of plasma and CSF were frozen at −80° C. immediately in 1 mL polypropylene tubes after being collected for subsequent determination of plasma leucine and CSF Aβ isoform peptide enrichment. The sample collection for one subject was truncated at 4 hours; this subject was excluded from the analysis.
All samples were processed and measured in a blinded fashion with data results and individual analysis completed before unblinding to participant's disease state. The procedure for sample preparation, data acquisition and processing were previously described.^34 Briefly, 1 mL of CSF from each hour of collection and media standards were thawed. Aβ was purified and processed for mass spectrometry by immunoprecipitation with a mid-domain binding antibody HJ5.1 (Aβ amino acids 13 to 28). […] The purified Aβ was then digested with Lys-N (Metalloendopeptidase) and isotopic enrichment of Aβ c-terminal isoform specific peptides (Aβ29-38, Aβ29-40, and Aβ29-42) were measured using a nano-liquid chromatography (NanoLC-2D-Ultra system (Eksigent Technologies, CA USA)) coupled to a TSQ Vantage triple quadrupole mass spectrometer (ThermoScientific, San Jose USA) that was equipped with a column-heating nanospray source (Phoenix S&T, Chester Pa. USA). Xcalibur V2.1 was used to collect and quantify the mass spectrometry data for SILK. […] Samples for 100 subjects (including the prior 24 subjects) were analyzed utilizing the more specific and sensitive method34 in this study.
The time and magnitude of the peak maximum was determined by fitting a 2nd order curve to enrichment vs. time over an 11-h interval centered at the approximate peak maximum. The compartmental model previously developed and applied to Autosomal Dominant AD participants was used to determine model-dependent parameters of Aβ turnover kinetics (FIG. 18).^14 Modeling was performed using the Population Kinetics (PopKinetics, version 1.0.1) companion application to the SAAM II modeling program (version 1.2.1, SAAM Institute, University of Washington, Seattle). PopKinetics performed an iterative two-stage approach to optimize kinetic parameters to individual participants as well as the population as a whole by including a term that represents the population mean and standard deviation for each adjustable parameter such that variability of the kinetic parameters across the population is minimized. […] The model consists of a plasma leucine pool, a subsystem for production of Aβ through APP and C99, turnover of Aβ, and transport of Aβ to CSF.

Aβ40: naturally occurring amyloid-beta isoform Aβx-40, where x is any N-terminal cleavage site; endogenous, measured as biomarker
FTR faster: 17% | FTR, Mean(95% confidence limits) (CDR = 0 Amyloid+): CDR = 0 Amyloid+ 0.096(0.083-0.109) | FTR, Mean(95% confidence limits) (CDR = 0 Amyloid−): CDR = 0 Amyloid− 0.082(0.068-0.096) | FTR, Mean(95% confidence limits) (CDR > 0 Amyloid+): CDR > 0 Amyloid+ 0.074(0.067-0.081) | FTR, Mean(95% confidence limits) (CDR > 0 Amyloid−): CDR > 0 Amyloid− 0.094(0.083-0.106) | mean FTR (not significantly different by univariate analysis of amyloid status): 0.082±0.022

Aβ42: naturally occurring amyloid-beta isoform Aβx-42, where x is any N-terminal cleavage site; endogenous, measured as biomarker
correlation between annualized change in fibrillar amyloid by PET PIB and FTR Aβ42 (R) (Amyloid positive and Amyloid negative participants): 0.56 | exchange rate constant (amyloid negative participants): 0.006±0.032 pools/h | FTR (fractional turnover rate) (amyloid negative participants): 0.094±0.031 pools/h | exchange rate constant (amyloid positive participants): 0.049±0.054 pools/h | FTR (fractional turnover rate) (amyloid positive participants): 0.112±0.035 pools/h | FTR (clinically normal amyloid negative group): 0.091 pool/h | FTR (clinically normal amyloid positive group): 0.143 pool/h | FTR faster: 57% | deposition rate constant (into amyloid plaques) (difference of FTR, clinically normal amyloid positive minus negative): 0.052 pool/h | increase in exchange of newly synthesized soluble Aβ42 (in amyloidosis): ten-fold increase | kex42 (Aβ42 exchange rate), Mean(95% confidence limits) (Amyloid+): Amyloid+ 0.059(0.042-0.076) | FTR, Mean(95% confidence limits) (Amyloid+ participants, CSF SILK): Amyloid+ 0.124 (0.112-0.135) | kex42 (Aβ42 exchange rate), Mean(95% confidence limits) (Amyloid−): Amyloid− 0.006(−0.016-0.029) | FTR, Mean(95% confidence limits) (Amyloid− participants, CSF SILK): Amyloid− 0.101 (0.086-0.115)
